Measured values published in patent publication US20130122568.
Positions count from the first letter of the chain named.

Key:
Test in all cases: cleavage_in_vitro
[1] = molecular target: T1, SalI (Streptomyces albus G) (UniProt Q53608); details: NEB3, 37 C
T1 sequence: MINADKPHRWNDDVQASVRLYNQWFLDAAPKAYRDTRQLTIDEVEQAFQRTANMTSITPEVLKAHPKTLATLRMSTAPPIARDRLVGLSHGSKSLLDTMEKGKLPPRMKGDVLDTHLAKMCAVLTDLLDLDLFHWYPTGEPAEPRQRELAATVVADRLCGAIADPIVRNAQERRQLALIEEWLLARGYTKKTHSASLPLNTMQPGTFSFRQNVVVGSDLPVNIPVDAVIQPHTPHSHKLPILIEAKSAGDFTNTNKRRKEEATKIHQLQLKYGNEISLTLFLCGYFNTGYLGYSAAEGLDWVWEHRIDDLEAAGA

[2] = molecular target: T2, SalI-HF R107A (Streptomyces albus G) (UniProt Q53608); details: NEB2, 37 C
T2 sequence: T1 sequence with R107A

PvuII (Proteus vulgaris) = molecular target: T3, PvuII (Proteus vulgaris) (UniProt P23657); details: NEB1, 37 C
T3 sequence: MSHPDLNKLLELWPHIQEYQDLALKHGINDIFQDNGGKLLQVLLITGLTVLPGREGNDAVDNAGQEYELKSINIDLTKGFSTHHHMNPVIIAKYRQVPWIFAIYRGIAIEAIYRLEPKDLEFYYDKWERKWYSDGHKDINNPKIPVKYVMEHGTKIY

[3] = tested on: T4, AvrII (Anabaena variabilis); details: NEB1, 37 C
T4 sequence: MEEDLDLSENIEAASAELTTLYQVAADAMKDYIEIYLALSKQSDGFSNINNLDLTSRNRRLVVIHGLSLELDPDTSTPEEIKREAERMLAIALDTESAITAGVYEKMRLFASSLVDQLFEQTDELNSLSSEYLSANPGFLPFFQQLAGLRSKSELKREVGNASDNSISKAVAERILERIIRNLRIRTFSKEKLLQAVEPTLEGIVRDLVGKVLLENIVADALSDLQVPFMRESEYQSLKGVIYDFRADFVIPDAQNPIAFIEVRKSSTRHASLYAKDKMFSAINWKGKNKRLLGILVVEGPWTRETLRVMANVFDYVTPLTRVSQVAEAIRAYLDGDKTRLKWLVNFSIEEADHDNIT

[4] = tested on: T5, AvrII-HF Y104F (Anabaena variabilis); details: NEB4, 37 C
T5 sequence: T4 sequence with Y104F

Substance: HindIII-digested lambda DNA
- activity (fidelity index) [1]: 32
- activity (fidelity index) [2]: > 64000

Substance: pBR322
- activity (fidelity index) (PvuII (Proteus vulgaris)): 250

Substance: T7 DNA
- activity (fidelity index) [3]: 64
- activity (fidelity index) [4]: > 1000
